Results from the DeepSol protein solubility set.

test: soluble on expression in E. coli; label from the status in PepcDB or PDB records

Sequence | soluble on expression in E. coli
MISLPIDAVVPALRQALGAQHQAVLEAPPGAGKTTRVPLALLDEPWLAGQRILMLEPRRLAARAAAERLAAELGEKVGETVGYRIRLESRVGPKTRIEVVTEGILARRLQDDPALDGVGLVIFDEFHERSLDADLALALTLNGRELLRDEPPLKVLVMSATLEGERLAALLGEAPVVRSEGRMFPVDIRWGRPAQPGEFIEPRVQQAVLQALAEESGSVLVFLPGQAEIRRVHEGLREALGGRPEVLLCPLHGELDLAAQRAAIEPASRGTRKVVLATNIAETSLTIDGVRVVIDAGLARVPRFDPGSGMTRLETQRISRASATQRAGRAGRLEPGVCYRLWSESQHEQLPAYGTAEILQADLAGLALQLARWGVAPEELAWLDAPPAAAYAQARELLGRLGALNASGALSAHGQAMAELPTHPRIAHLLLRGQALGLGELACDVAALLGERDIQRGGGADLHSRLALLAGEARTGASRGAVQRARQLARQFRGYLRGAASEAVVDPGHPRWLGCLLAFAYPDRIARQRRAGGGDYRLANGRAAQFGEPDSLMKQPWLVIADLGSRQGQREERIYLAAELDPRLFDTVLAEQVSQRDELQWDEREGVLRAERQRRVGELVLSSEALPGLDEAARSQALLGLVRRKGLELLPWTPELRQWQARIGLLRRLDLEDKGESEWPDVSDAALLERLEEWLPAYLGKVTRLAHFANLDLASILAGLLPWPLPQRLDEWAPKTLEVPSGSRIRLDYSETPPILAVRLQELFGLGDTPRIAQGRLAVKLHLLSPAHRPVQVTQDLANFWRSTYAEVRKDLKGRYPKHYWPDDPLVAEATARAKPR | not soluble
MSLDKIMNEAISPWMKGDGPDSDIVLSSRIRLARNFKQYQFSTMQNEEEAQKVQELFKKKFINKAVEPFGKFGLLKMNELTPLQRRVLVEKHLISPNLAGTEYGACLLSESEHISVMLNEEDHIRIQCLFPGLQLSKALQSANQIDNWIEKEVEYAFDESLGYITSCPTNVGTGLRASVMIHLPGLVLTKRISRIIQVIQKLGLVVRGIYGEGSEALGNIFQVSNQMTLGKSEEDIIADLKSVMQQIIQQEKLARELIVQNSSIELEDKVYRSYGILANSRLIQSAEAATCLSDVRLGIDLGYIKGISRNILTELMVLTQPGILQQYAGGPLGPEERDYRRATLIRERLRIEKN | not soluble
DQVLKGAALVGHNVLVPSAQVAIDATGSAKGVVAATSAGFVNFEITDANGTFVKQLSVPASAAGEVSFAWDGTDANGNRMAAGKYGITATQTDTAGAKSKLATYVDAPVDSVTIGSDGLYLNLTGLGTSPLANVLRVS | soluble
MSLVLKCSLCINDERITKILTVNGRPICKECKAFLEHPPDKIKIRKELEELLSQVDKAIVAYSGGKDSTVALYLAKEEYDIDVEAVMVDHGFMAPQAIENAKKVSEYLNVPLTIIREDYSEIFKDALLKAKSPCRKCSRRTMEALRKYALEKGYKYIISGHELPFGHHPYRLMSGGIIQIRLLSLMSEKERMEILKKLPFKLPELPGYTSNCLILGPALERYWEKHGYSFEHRRIAALVRYGLLDREKALKKVEKPKVPEWQWELVEKKLNLIVRSLEGHHHHHH | soluble
MAHHHHHHMSDAAPGPAPAPVTAAVDAPPLPAPTKVKPPRKKPPRAEEANPRLLAPANGVAAQQQKQRDKEFATHKAHILTNLQTNACDLSPKGSLDAKCLPVMGVLNTHKDYVTTSSCSGRIALFHSIKHSEACGADDGTATPKPRMKRGENAALGWVFVKHGMLRPMEMAQVVGFLCGAPTTPEDVALDSAQMEKHAAHMASVSCSAHCHSAAPGSLLAEMYDGEVEGALVGARVSGDEVAALPVPTRGTVSLKMEPFVMHVQCRTMEAAKLLLSAVVSDSGFRNSGVVPPGKKIMCGIRSAAGLGLEVPVVVDGVNHVASQRAYVWALLGLANEKMEANEKKIKLLERSVAARVLPA | soluble
MDLSIFKNARAKPVPRPAPAGAASGLHDPLAPTIFHEAWWLDASAPDGWSETLVRADNRIVGRLPYMILRKPFGQTSCEMPKFAHFLGPAVAPGPGARANRALKEAQIVRELHEQLPPTGNLYMRMHRGVTDTMVHAEAGLHMLVNFTFEIAPGCEQAIWAGMRDKTRNIIRRAQEKHCVSDTLDPRDFAACYRRNVDEAGHESYYETDEIVRVCTAALERGRGRILSATGPDGGLAAAIFTIWDATSCYYLLATRSRGEDHGATSLLLWEAIRHANRMGLIFDFDGLYTRGNRVFFTGFGGTVHPRYVVCGSTRTYRATAALSKALSRLRRP | not soluble
MGSDKIHHHHHHMFKPQGLYDYICQQWQEEILPSLCDYIKIPNKSPHFDAKWEEHGYMEQAVNHIANWCKSHAPKGMTLEIVRLKNRTPLLFMEIPGQIDDTVLLYGHLDKQPEMSGWSDDLHPWKPVLKNGLLYGRGGADDGYSAYASLTAIRALEQQGLPYPRCILIIEACEESGSYDLPFYIELLKERIGKPSLVICLDSGAGNYEQLWMTTSLRGNLVGKLTVELINEGVHSGSASGIVADSFRVARQLISRIEDENTGEIKLPQLYCDIPDERIKQAKQCAEILGEQVYSEFPWIDSAKPVIQDKQQLILNRTWRPALTVTGADGFPAIADAGNVMRPVTSLKLSMRLPPLVDPEAASVAMEKALTQNPPYNAKVDFKIQNGGSKGWNAPLLSDWLAKAASEASMTYYDKPAAYMGEGGTIPFMSMLGEQFPKAQFMITGVLGPHSNAHGPNEFLHLDMVKKLTSCVSYVLYSFSQKK | not soluble
MGSDKIHHHHHHMKVTLIGIDLAKNVLQVCGVNQVGKTLFNRTVKRTQLLKTLVQYPDAVIAMEACSGSNYWGRELLSRGFEVKLIPPQHVKPFVKGNKNDRNDAFAICEAAMRPNIIFVKPRTLAQVDIIISHRIRERRIRVRTALTNQIRGLLSEYGIVIPKGRDPLNLALPELLEDADNSLTTTARRYIRELLDELYAINASIKALEKEIRLQARNHEDTKRLTAIRGVAEIIATASVSFAGDGSGYQNGRHFSANLGLVPKEFSSGGKQKLGAITKRGNSYLRRQLIQGAWSVIRYAKNNDDRLSVWARKVIERRGKQKAAVAVANKLARIIWAMLYYKTEYRPS | not soluble
MGSDKIHHHHHHMSLSYKEMHQTLMEELRLYHYPVAVKFFFDDEELATFKEKAEFYVPVKPMTFCQWELAARMKGQTVLATREDLGCSNALVSFGWKDIDDNEIKSHMKYVRSIEQAEKFVRSKPRLDMGSVKAIAVGPLGDAIVAPSVVHFYCDNMQSYHLAVDYMAAMDQHPLRTNVTMNSSACGGTVFSFLEKTANMLPACSGSYNAGKTERGEINFMIPGEHIEATVERLLERKRNLGSSAITRPGDGFPGADVCKNCPLIIFKKEK | not soluble
MEDLIDGIIFAANYLGSTQLLSDKTPSKNVRMMQAQEAVSRIKMAQKLAKSRKKAPEGESQPMTEVDLFILTQRIKVLNADTQETMMDHPLRTISYIADIGNIVVLMARRRIPRSNSQENVEASHPSQDGKRQYKMICHVFESEDAQLIAQSIGQAFSVAYQEFLRANGINP | soluble
MLKLKFNEEGLIPVIAQDYRTGEVRMLAYANEEAIKKTLETGYAHYYSRSRKKIWKKGETSGELQKVIEVRVDCDEDALIYVIEQEKDRACHTGERNCFFRDIEGNKVEKPLPFEVLPRLQDVIREKIERKEENSYTAKLVSQGKERVFQKFGEEAVETLIALMKGEKEEVIYESADMLYTFLVSLSVSGIDIKEVMEELIRRFK | soluble
MLRREFGPKYTAKINEAEENWQARAEAIKKGKKQNTWDLFEERGYVKDTAGTKEHIAELMRTRRIGAYVGIDPTAPSLHVGHLLPLMPLFWMYLEGYKAFTLIGGSTAKIGDPTGRLKSRDHLSSSDATMNMTKIHYQLKKLWENVDTQMRARGYEADWARKRGIVNNNHWWNKQPMLEVLRRVGHALRIGPMLSRDTVKNKMTQGDGVSFAEFTYPIMQGWDWFELFYQQGVQMQIGGSDQYGNIISGLEVVKAARESEPDPQERKYVTPKTALDECVGFTVPLLTDSSGAKFGKSAGNAIWLDPYQTSVFDFYGYFVRRSDQEVENLLKLFTFMPISEITKTMEEHIKDPSKRVAQHTLAREVVTLVHGKQEASAAEDQHRMMYTGQMTI | soluble
MGSDKIHHHHHHMRKINMMTTFECRVHTLEFDENYQPEMQSTRLTTNFANLARGENRKENLQNVIAMIDKRFNDLANWDNPTNDRYSVKLEIVSIDIDMEGKGKFFPALEWLKTYVIDHKTGKRIDGIVGNNFSSFVRDYDFSVLLLEHNRNKEEFTVPKGYGELHGKLFKYLLTSSAYKEKYSKPPVICLSVATTRTYRRTTNVHPILGVEYHQDNYSLTDEYFAKMGLSVRYFMPPKSVAPYAFYFDSNSDLLNDYTNLELISTIATMEAFQKIYRPEIYNANSVAGQVYKGSLTYQDYSVTKVEYDRVERTQLAIKQGKYTEAHFIKPYKAILDAWMAEK | not soluble
MNFNTILEEILIKRSQQKKKTSPLNYKERLFVLTKSVLSYYEGRAEKKYRKGVIDISKIKCVEIVKNDDGVIPCQNKFPFQVVHDANTLYIFAPSPQSRDRWVKKLKEEIKNNNNIMIKYHPKFWADGSYQCCRQTEKLAPGCEKYNLFESSIRKTLPPAPEIKKRRPPPPIPPEEENTEEIVVAMYDFQATEAHDLRLERGQEYIILEKNDLHWWRARDKYGSEGYIPSNYVTGKKSNNLDQYEWYCRNTNRSKAEQLLRTEDKEGGFMVRDSSQPGLYTVSLYTKFGGEGSSGFRHYHIKETATSPKKYYLAEKHAFGSIPEIIEYHKHNAAGLVTRLRYPVSTKGKNAPTTAGFSYDKWEINPSELTFMRELGSGLFGVVRLGKWRAQYKVAIKAIREGAMCEEDFIEEAKVMMKLTHPKLVQLYGVCTQQKPIYIVTEFMERGCLLNFLRQRQGHFSRDMLLSMCQDVCEGMEYLERNSFIHRDLAARNCLVNEAGVVKVSDFGMARYVLDDQYTSSSGAKFPVKWCPPEVFNYSRFSSKSDVWSFGVLMWEIFTEGRMPFEKNTNYEVVTMVTRGHRLHRPKLASKYLYEVMLRCWQERPEGRPSFEDLLRTIDELVECEETFGR | soluble
GNDEIGELALAFNNLSKRVQEAQANTESEKRRLDSVITHMSDGIIATDRRGRIRIVNDMALKMLGMAKEDIIGYYMLSVLSLEDEFKLEEIQENNDSFLLDLNEEEGLIARVNFSTIVQETGFVTGYIAVLHD | not soluble
MNSIVNGLYTFMSTTVVPAVTEQAANLVGGASALAEGATQALTQISQTALEWGSGSEDATASSEVFSWEQQGAAAASSDLQEDKKETTEDVHQEAIGASSPNTSIEWEVIHENPDETGPIRHNQFEMVQNNYEWMKNSK | soluble
GMPHVHVSTDNSLLDIGLIHRTLSQDTDWAKDIPLALVQRAIDHSLCFGGFVDGRQVAFARVISDYATFAYLGDVFVLPEHRGRGYSKALMDAVMAHPDLQGLRRFSLATSDAHGLYARYGFTPPLFPQSLMERYVPGLYST | soluble
MGSSHHHHHHSSGLVPRGSHMAADNRVQMRTTINNESPLLLSPLYGNDNGNGLWWGNTLKGAWEAIPEDVKPYAAIELHPAKVCKPTSCIPRDTKELREWYVKMLEEAQSLNIPVFLVIMSAGERNTVPPEWLDEQFQKYSVLKGVLNIANYWIYNNQLAPHSAKYLEVCAKYGAHFIWHDHEKWFWETIMNDPTFFEASQKYHKNLVLATKNTPIRDDAGTDSIVSGFWLSGLCDNWGSSTDTWKWWEKHYTNTFETGRARDMRSYASEPESMIAMEMMNVYTGGGTVYNFECAAYTFMTNDVPTPAFTKGIIPFFRHAIQNPAPSKEEVVNRTKAVFWNGEGRISSLNGFYQGLYSNDETMPLYNNGRYHILPVIHEKIDKEKISSIFPNAKILTKNSEELSSKVNYLNSLYPKLYEGDGYAQRVGNSWYIYNSNANINKNQQVMLPMYTNNTKSLSLDLTPHTYAVVKENPNNLHILLNNYRTDKTAMWALSGNFDASKSWKKEELELANWISKNYSINPVDNDFRTTTLTLKGHTGHKPQINISGDKNHYTYTENWDENTHVYTITVNHNGMVEMKI | soluble
MSLNNIQIRNYQPGDFQQLCAIFIRAVTMTASQHYSPQQISAWAQIDESRWKEKLAKSQVWVAIINAQPVGFISRIEHYIDMLFVDPEYTRRGVASALLKPLIKSESELTVDASITAKPFFERYGFQTVKQQRVECRGAWFTNFYMRYKPQHEGGSHHHHHH | soluble
